# Results as given in paper PMC4222082, “Nitrogen starvation-induced transcriptome alterations and influence of transcription regulator mutants in Mycobacterium smegmatis”.
# Target: T1, MBP-GlnR (Mycobacterium smegmatis (SMR5?)) (UniProt A0R4C4)
# T1 sequence: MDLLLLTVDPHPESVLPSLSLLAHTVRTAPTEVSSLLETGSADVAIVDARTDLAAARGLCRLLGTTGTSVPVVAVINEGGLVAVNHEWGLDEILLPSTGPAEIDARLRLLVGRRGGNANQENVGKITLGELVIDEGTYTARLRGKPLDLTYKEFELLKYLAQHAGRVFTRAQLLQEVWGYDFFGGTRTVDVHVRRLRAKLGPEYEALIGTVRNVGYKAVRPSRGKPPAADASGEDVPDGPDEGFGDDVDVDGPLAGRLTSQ
# Assay: EMSA
# Details: GlnR: DIG Gel Shift Kit (Roche) buffer, 6% native PAGE, 0.5x TBE; AmtR: 20 mM Tris-HCl pH 7.9, 25 mM KCl, 1 mM DTT, 5 mM MgCl2, 0.5 mg/ml BSA, 5% glycerol …
row,Sequence,binding
1,GTGGCGCGGCAGGGCGGCCACGGGCAGGCCCTGCTGGTCTTCGACACCGGTGACGGCCGCACGCTGCAGACCCATCCGCTTCCCGAGGCCACCGGCTGGCCGGTCGGGGTATCGATCGGCCACGACGGCCGCGTGGTCACCGCGACGAGTGACGGGCAAGTGTATGGCTTCTCACCGGCATGATGCCGGAAGTTTTACAGGGAATTGACGAAATCTCCACAGAAAGTGGTGGGCTTCGTGTGAGGATTTGGCGCGGCAACCGTGCAAGATCAATGAATTTCTGGGGGAAGGCAATAACCA (double strand) [msmeg_1052 upstream],no binding
2,CGGGGTCATCGGGCGGTCCGGCACGCCCGGCAAGGCCTGGGCCTGGCAGACCCGCTCGTGGTCGAAGGGCAAGATCCACCCCGCGGCGGTGCTCTATCAACACACCATCGACACCGCGTCGAACCCCGGACCGTTGGTCGGCGGCATCCGCGTGGATGTCAACGACGCCTTGGCCCAGGACATCGGCCAGTGGAATTTCCACCCCTGAGGTCACATCACTTTAATCTCGACGCAATTGCGTTGCCATACCGGTGATCTCTACTGAAGGCGCCAGCAGCCCCCTTCAGAGGACACCCGCCC (double strand) [msmeg_6816 upstream],no binding
3,TTCGGTGTACCTGTGGAAGAACACCGTGGAGAAGGCACAGTCCTTCGACGTCAAGGCAATTCAGGACAACGCCGATGGCGTGAGCTTCGACGCGCCCGAGGGCAAGGTCACCATCGACGGCGAGAACCACCACATCACCAAGACCGCCCGCATCGGTGAGATCCGCCCCGACGGCCTGATCTACACGGTGTGGGAGTCCAAGGGCCCCATCGAGCCGGATCCGTACCTGAAGTCCTACCCGTGGGCCGCAGGGCTGTCGAGCTGATCAGATAGTCACACCGAGGGGGATCTGACAACCGT (double strand) [msmeg_2981 upstream],no binding
4,AGGCTTTTCGCCGGCTGCTGTGATCACACCAAGATCGTCGGCGCAGTCGATGACCTAGATGTTGTCGTGAAGTTTCAAGAATGTGACGTCATCAGTCGGCGGCTGCGTCGACCGCCAGCAGCAGTCGCAACGCGCCCGCATCGCGAGGGACTGCCGGGTCGAGGCCGGTACTGCTGGTCACCCTGGCCAGTCGGTTGATGACGGTGTTGCGATGGCAGTAGAGCCTGCGAGCGGTCTCGGTGACGGAACCGGTGTCGAGATAGATGCGCAGCGTGTCCGTGAGCAAGGTCTGATCGCGCG (double strand) [msmeg_3400 upstream],binds
5,TGCAGTATCACTACTTTCTTGTTATCCACTTGTCAGGCGTTCGCGGTCTCTGGAGTTTGCTGTGAGGTTTCCTTGAGCCCGAGGCGGGCCCGGATGACGAGGCCGATGACGAACAGTGCCGCGGTGACGATGAACGGCGCCCAGTCGACCCACGGGTCGCCCGTGCGGGGCCACAGGACGTTGACGGTCTCCACGATCACCCACACCAGCGCGAGCCACCCCGCAACGTGTCCGGCACGGCCCAGGAAGGTCGGTTCGGTGGGGTCCCAGGTGCCCCGGAGCTTGCTGATCGCCAACCCC (double strand) [msmeg_6734 upstream],no binding
6,GAACAACCTTTCCCGATGATTGCAGCGCATTTTGGGCCGATCGCCTCGGCCGCGGTGCAGGAGGTTAAACACACTGTGCTGGTGTCGAATCGGGACGTTAGAGCGCGCGTGTTACTGCCAAATGTCTGTGTGTGACGAACAAATTAACCTCGACATGACATGCCGCTGGTTTGCCGCCGGTTCTCGACGCCGTGACACCGGCGTGGCGTGTGTAACGGGGAGGTAGCCTGCGTCGATATG (double strand) [urtA upstream],binds
7,GGTGGCGGCGAGTTCGATACCGCTGTCGCTCAACGTGACCGGCGGCCACCCCAATCCGGTGAGGTCCACGAGCCTGCGCAGCTGAGGTTGGGGCTCGGAAAACAGCCAGGTCCCACCGGCCAACACCGCGTCGCCGGCCCCCAGCGGCCACACCTCCTCGCGACGGGTCGGCCGGTCCACCACCTCGACGGTGTTGAGGTCCATTCCCGCGACCGTAACCAAAGTGAACGCGCCGTGCACCATGAACCGTGGCACAACGCTCGGCGTGCGAACCGCCGCGATCTGTCCGATTCTTAGTCG (double strand) [msmeg_1293 upstream],no binding
8,GGGGTCACCACCTGCTGCTCGGCATCCACCATGTATCCCAGGAACGCACCGGCCCGGCGCGAAACGTGGTAGTGCACCACGAGTTTGCGCCCGCATCCGGTGCAGCCCACCAGGCCGTCGATCTCGACCGCGGCGGTGGTGACGGCGCGGCAGTGCGTACAGAACACGTCGCGGTGGGCGACCTCGGTGCTCGCGATCGTGATCTCGTCGTCGGCGATACCGTGCGCGAGGGCGTGGGCACGCACACGCAGATTCAGGTGAGCGGGGCCGGCGGTCATCAGTCGCCAGCCCACCACCGCG (double strand) [msmeg_4638 upstream],no binding
9,GGACCGGGACCGGATAGCCAGGATCCCAACCGGGAGCCGTTTGTGCGGGCCATGATGTCAGGATAGGCGCGTGCGGATGTCCGGCCGCCGGGTGCCACGTCGCGACGCGGTTCACACCGATGTGTGCTGGAGTTCACCGGCGGACACGCTCAAACCGATTGCGTAACGTCGGCGCAACATCGGGTTGACGACTGCGCAACATCGTGTCCTTAGCGTCAACGCGCGGGTTACCAGTAAAGGAGAACACTCA (double strand) [glnA upstream],binds
10,CCAGTCCAGGAAATCACCGGATATCGGCTGGCGCGTCATTTTGACGGAAAACGTGGGGTACGCCGTTTCGCCGGGTCACCTCGGCGAACCACCGTGCGCTGGCCTTGGGCGTGCGGACCTGCGTGGCGTAATCGACGTGGATCAGGCCGAACCGCTTGGCGTAGCCGTACGCCCACTCGAAGTTGTCCAGCAGGCTCCACACGAAATAACCGCGGATGTCGGCACCATCGTCGATCGCCCG (double strand) [narK upstream],no binding
11,CCCAGCTCGCCACTCTCGATGGTGGCCAGCACCAGGGACTTCTCGGGCACGAACCCGAGCACGGCGGGCAGCGCCGCGATCAACGATCCGGGCCGGTTGATACGAAAATCCGGTGTGTGCGGTGAAGGTGTCATGTGCCGACCGTGGCAACCGGCGCCGACGCCGTTCACCCCGAAAACCGGCTGCGACGAGTGGCTGTGGACGAAATCGGCTCTGGGGACAACTTCCGAAACAAACTGTTCACGCGCCATTGCGCGTCTCCGGCGTGCACGCGCGCCGACAGCGGCGTACACACTGACC (double strand) [msmeg_2748 upstream],no binding
12,GTCCGCCAAGTTACCGGCCGGAAAAATAAGGTGCGCGCCTCCCTTATCCTTGTTGGGACTCATTCCGGCTCGATCCCACATGCGAAAGGTTGATCAGGTGGCGCTCGTCGTACAGAAATACGGCGGATCCTCGGTGGCGGACGCCGAGAGGATCCGACGGGTCGCCGAGCGGATCGTCGAGACCAAGAAGGCGGGCAACGACGTCGTCGTCGTCGTCTCCGCGATGGGTGACACCACCGATGACCTGCTGGACCTGGCGCGCCAGGTGTCGCCCGCGCCGCCGCCGCGCGAGATGGACAT (double strand) [msmeg_6258 upstream],no binding
13,GGTGCCGACCGCCCCGACGACGAGCGCGGCCACCGCCGCGACGAACCCGACCACCAGTCTGCGCACCGGGACATTGTTGCCCACGAGACCGGCAAAGATTCGCTCGGCGCGGCTGACGAGCAGGTGAGGCGTTATCCTCGTAACACCAAAGGCCGGTAACGGCTACATGTCAGTCATGAATCCGGAAGATCACCCGACACCGGCGTCTGTGTTCTCCCGCAGAGATTCCTGACGAGCCGGGAGGACTTG (double strand) [glnR upstream],no binding
14,GCCCTCCGGGCGGTATCTGCGCCTGAACTTCTCCGGGCCGGAGCCGGACCGGTTCGAGGAGGCGGCGCGCGTGATCGGACGGTCGCTGCGCAGACAGCTGTGACCCGGCGGTTGTGGCCTGACTGTGGTCCGGAGAGCTCACCGGTCGGGGACCTCACATGTGCGTTGCCGAAGACGTGAGCACACCGTGATGGGGGCTTCACACAGCGCGACATCGCGGCAATATCGGGTTCTTAGCCTCGCCCTATG (double strand) [nirB upstream],no binding
15,GGGTCTCTCCAGGGAGGCGATGAGGGTGCGGGCGGCGACAGTGCCGGGAGCCGGATGATCGGCTGGGTCAATTACAGGCCCCGGCCATTGCCGTGTGGTTAGGGATGGACTACTTCTGAATTGCCGAAATCTCACAGCGGCAATGTGCTCGTAATAAGTGCAGCATGCGCCTTGACCTCAACCTCACTTGAGGTGCCAGGCTGGCTCTCATGACATGTGGACTCCAGTGGCCAGAGGCGGTAAACCGCCGCGAACCCGGGGGTAAACCCCCTGGGGACCTGGATCGGCACGCAGTAACTT (double strand) [msmeg_0572 upstream],binds
16,GCGAGGCAGACTAGCGGCATGACCGATGACGGCTACACAGTCGGTGACTACCTCCTGGACCGGCTCGCCGAACTCGGCGTGACCGAGGTCTTCGGCGTCCCCGGCGACTATCAGCTGGAGTTCCTCGACCACGTCGTGGCGCACCCGCGCATCACGTGGGTCGGCGGCGCGAACGAACTCAACGCGGGCTACGCGGCCGACGGCTACGGCCGGCTGCGGGGCATGGCGGCGTTGGTCACCACGTTCGGCGTCGGTGAGCTCTCGGCGGCCAACGCCATCGCAGGCAGCTACGCCGAGCAC (double strand) [msmeg_5734 upstream],no binding
17,CATGTGCCACCGTCGCGGCACGCGCGCCGACGAGTTCGCGCGCAGCCGCGGGCAGTTCGGCCGTGGCGGCGCGCAGACCGGCCACCGAGGTCGCCGCGTCGATGTGGCGCTGCACGAGGTCGGGGGCGGGCATACCGGCGATTGTGACAGGCCCACGGGCGGTGAGGGTTCTGCAACCGAATGCTTACCGACGGCTACATGAACGAAACATTCGGGTGACGCCGAGGACACGCGCCCATTGTTATCTGTCATCTGACAGGTAAGAGCTGGCGGCAGCGCCCCTAGCCAGAGAGAAAACCC (double strand) [msmeg_2184 upstream (GlnR probe)],binds
18,CAAACATCTCCTCACGGTGGCGGCTCGAAACAAGCCGTTCACTCGCAGTAACCGACGTTTCTGTTACGGAGATGGTCGCCAAGTGTTGCAGCGTGGTTAAAACTCAAACCGCGCTTTACAGCGGGTTGCCCCATCGGCCCGTGAACGCAACCTGCTCAAGTGCCAGACGTTCACGCGGGCGGCTGTCGCGTTCGGCGATGGCCTCGTCGGCCGTCGCGTAGTCACCGAGGTGTCCCAGCG (double strand) [amt1 upstream],binds
19,CCGGATGTTCCTTTCAGCTCTGCAGATTCGGGTGCCGTCAGTCCCAGTGCGCCTTGAAACCCAGTGCCGGGACGGTCTCCCCCAGCCCGGGTGTGGAGGCCTTGCGGATCAGGGCCAGTGTCTCGGCATACGTGGTGTGGTTCTCCGCGAGCCGCTCGGCGGGCACGGGCAGGCCCGCGAACTCGAACGCCGCGGAAATCTGTTCCTGCGATGGCATGAAATCGGACATGGTTCTCCTCGCTCTCAGAGGTTGGGGGTGAAGTCGACGAAACCGGCGATCCGCTCGAAGGCCCGGCCTG (double strand) [msmeg_1090 upstream],no binding
